Experimental data from paper PMC11437124 (Nature Communications, 2024).
Blank lines part the entries; values can stand above or below the binder they belong to.

Columns and labels:
[1] = molecular target: human TREM2 extracellular domain (ECD) (Homo sapiens, UniProt Q9NZC2)
[2] = molecular target: human TREM2 on live cells (Homo sapiens, UniProt Q9NZC2)
[3] = molecular target: T1, peptide with the entire TREM2 stalk region (Homo sapiens, UniProt Q9NZC2, biotinylated at the amino-terminus); assay: ELISA
T1 chain: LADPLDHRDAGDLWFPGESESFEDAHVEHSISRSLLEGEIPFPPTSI

TREM2 peptide 149-168 = molecular target: T2, TREM2 peptide 149-168 (Homo sapiens, UniProt Q9NZC2, biotinylated at the amino-terminus); assay: ELISA
T2 chain: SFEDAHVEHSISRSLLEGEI

[4] = molecular target: T3, TREM2 peptide 149-161, wild type (Homo sapiens, UniProt Q9NZC2); assay: BLI
T3 chain: SFEDAHVEHSISR

[5] = molecular target: T4, 18-mer TREM2 peptide (148-165) (Homo sapiens, UniProt Q9NZC2); assay: crystal structure
T4 chain: ESFEDAHVEHSISRSLLE

[6] = molecular target: these 4 clones (3.10C2, 3.27H7, 3.18E5 and 3.50G1), SPR screening; assay: SPR

- binding result [1]: binds
- binding result [2]: binds
B1: 3.21B10 (antibody, V domains shown)
VH: AVQLIESGGGLVQPKGSLKISCAASGFTFSDAAMFWVRQAPGKGLEWIARIRTKPNNYATYYADSVRGRFTISRDDSKSMVYLQMDNLKTDDTAMYYCIEGVNYGGSPFVYWGQGTLVTVSS
VL: DIVMTQSPSSLAVSAGETVTINCKSSQSLLYSGNQKSYLAWYQQKPGQSPKLLIYWASTRQSGVPDRFIGSVSGTDFTLTISSVQAEDLAIYYCQQYYDIPLTFGSGTKVEIK

- binding result [3]: binds
- binding result (TREM2 peptide 149-168): binds
B2: antibody Para.09 (IgG, with the light chain of 3.10C2) (antibody, V domains shown)
VH: EVQLVETGGSLVQPGKSLRLTCATSGFPFSNVWLHWVRQSPEKHPEWVAHIKAKSDNYATYYAESVKGRFTISRDDSKSSVFLQMNSLKEEDTAIYYCTDILEYWGQGTLVTVSS
VL: DTVLTQAPLSLSVTPGESASISCRSSKSLLGVRDITSLYWYLQKPGKSPQLLIYRMSNLASGVPDRFSGSGSETDFTLKISEVETEDVGVYYCAQFLRYPYTFGPGTKLELK

- binding result [4]: binds
B3: Fab fragment of antibody 3.10C2 (Fab, V domains shown)
VH: EVQLVETGGSLVQPGKSLKLTCATSGFPFSNVWMHWVRQSPEKQLEWIAHIKAKSDNYATYYAESVKGRFTISRDDSKTSIYLQMNSLKEDDTAIYYCTGLDYWGQGVMVTVSS
VL: B2 VL

- binding result [4]: binds
B4: Fab fragment of antibody Para.09 (Fab, V domains shown)
VH: B2 VH
VL: B2 VL

- binding result [5]: binds
B5: huPara.09 Fab fragment (Fab, V domains shown)
VH: EVQLVESGGGLVQPGGSLKLSCATSGFPFSNVWLHWVRQASGKGPEWVAHIKAKSDNYATYYAESVKGRFTISRDDSKNTVYLQMNSLKTEDTAVYYCTDILEYWGQGTLVTVSS
VL: DVVMTQSPLSLPVTPGEPASISCRSSRSLLTSKGITSLYWYLQKPGQSPQLLIYRMSNLASGIPDRFSGSGSGTDFTLKISRVEAEDVGVYYCAQFLVYPYTFGPGTKVEIK

- Kd [6]: 0.14 to 0.67 nM
B6: human TREM2 extracellular domain (ECD) (domain or fragment)
chain: HNTTVFQGVAGQSLQVSCPYDSMKHWGRRKAWCRQLGEKGPCQRVVSTHNLWLLSFLRRWNGSTAITDDTLGGTLTITLRNLQPHDAGLYQCQSLHGSEADTLRKVLVEVLADPLDHRDAGDLWFPGESESFEDAHVEHSISRSLLEGEIPFPPTS
